For orientation: Kd means the equilibrium constant for the complex coming apart. A low value points to tighter binding.

The results in this text go back to paper PMC2886590.

For this assay, the target named is MLL PHD3 finger (residues 1565-1627), GST cleaved (human) (UniProt Q03164). As to the kind of experiment: other fluorescence titration.
Sequence of MLL PHD3 finger (residues 1565-1627), GST cleaved (human) (Q03164 1565-1627): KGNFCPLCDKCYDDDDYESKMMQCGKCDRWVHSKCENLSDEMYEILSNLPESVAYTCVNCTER

“H3K4me3 peptide (12-mer histone tail peptide)” gave a Kd of 19 µM.
